Laboratory results: patent US6348311B1, “ATM kinase modulation for screening and therapies” (St. Jude Childre's Research Hospital, priority 1999, dated 2002)
Blank lines part the entries; values can stand above or below the molecule they belong to. Where no end group is shown, it is not given here.

Columns and labels:
Format in all cases: biochemical
DNA-PK = DNA-PK (Homo sapiens, UniProt P78527); assay: In vitro kinase assay, purified DNA-PK with GST-peptide / GST-fusion substrates; conditions: GST-peptide substrate; relative to the p53ser15 site
Protocol: (§1) FIGS. 1A, 1B, and 1C. Phosphorylation of GST-p53 mutant peptides (amino acids 9-21) by ATM, ATR, and DNA-PK in vitro. In vitro kinase assays with immunoprecipitated, transfected flag-tagged ATM (A) or ATR (B) or purified DNA-PK (C) were performed with GST-p53 peptides containing the amino acid substitutions indicated. The amount of 32P-labeled GST-peptides was quantitated with a PhosphorImager and was normalized for each of the kinases to the level of phosphorylation of wild-type GST-p53.
(§2) FIGS. 2A, 2B, and 2C. Phosphorylation of candidate targets of by ATM, ATR and DNA-PK in vitro. GST-peptides containing the putative target sequences were used as substrates for the kinase assay.
(§3) Plasmids and GST-fusion protein production. For GST fusion peptide expression vectors, complementary oligonucleotides encoding desired peptides (14 amino acids) were cloned into the BamHI/SmaI site of pGEX-2T (Pharmacia). The constructs were confirmed by restriction enzyme digests and DNA sequencing. To construct the larger GST-p95 (327-391) protein fragment, p95 DNA encoding amino acids 327-391 was amplified by PCR with Pfu polymerase using the following primers: 5′ sense,
In vitro kinase assays and immunoprecipitation. […] Cleared supernatants were immunoprecipitated with anti-Flag M2 antibody and protein A/G agarose, the beads were washed with TGN buffer followed by TGN buffer plus 0.5 M LiCl, and two washes with kinase buffer [20 mM HEPES (pH 7.5), 50 mM NaCl, 10 mM MgCl2, 1 mM dithiothreitol (DTT) and 10 mM MnCl2]. […] ATP and […] of GST-fusion substrate (GST-p53:1-101), in varying concentration of Mn^2+. The kinase reaction was conducted at 30° C. for 20 min and stopped by the addition of SDS-PAGE loading buffer. Proteins were separated on SDS-polyacrylamide gel electrophoresis (SDS-PAGE) and transferred to nitrocellulose. Radiolabeled proteins were visualized and quantitated on a Phosphorimager (Molecular Dynamics). Use of equivalent amounts of flag-tagged ATM or ATR in the different lanes was confirmed by immunoblotting with anti-flag antibody. In some reactions, either supercoiled DNA (pBluescript II KS, Stratagene) or linearized DNA (pBluescript II KS cut with EcoR1) was added ([…]). For endogenous ATM kinase reactions, endogenous ATM was immunoprecipitated from GM0536 lymphhoblasts with ATM monoclonal antibody (D16.11) in M buffer (PBS, 10% glycerol, 0.2% Tween 20, 0.3% NP-40, 1 mM NaF, 1 mM Na3VO4, 1 mM PMSF, 1x protease inhibitor mixture]. After washing with M buffer and kinase buffer, in vitro kinase reactions were carried out according to procedures described above. The DNA-PK in vitro kinase reaction was performed as previously described (Gottlieb and Jackson, 1993), using 20 ng each of DNA-PKcs or DNA-PK (20 ng DNA-PKcs premixed with 20 ng Ku 70/80).

ATM kinase = biological target: T1, ATM kinase (Homo sapiens, UniProt Q13315); assay: In vitro kinase assay, ATM with GST-peptide / GST-fusion substrates; conditions: for Relative Phosphorylation (%) ATM: GST-peptide substrate, relative to the p53ser15 site; for phosphorylation by ATM in vitro (in words): larger GST-fusion fragments or full-length proteins as substrates;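 on all read-outs here: immunoprecipitated ATM incubated with [γ-32P]ATP at 30 °C for 20 min, substrates resolved by SDS-PAGE and radiolabel incorporation quantified by PhosphorImager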
T1 construct: The full-length cDNA encoding NH2-terminal, FLAG-tagged wild-type ATM; made in house; host or cells: 293T cells, transient transfection with pcDNA-FLAG-ATMwt, anti-FLAG M2 immunoprecipitate on beads
T1 sequence (Q13315 whole entry, the tested form may be a part): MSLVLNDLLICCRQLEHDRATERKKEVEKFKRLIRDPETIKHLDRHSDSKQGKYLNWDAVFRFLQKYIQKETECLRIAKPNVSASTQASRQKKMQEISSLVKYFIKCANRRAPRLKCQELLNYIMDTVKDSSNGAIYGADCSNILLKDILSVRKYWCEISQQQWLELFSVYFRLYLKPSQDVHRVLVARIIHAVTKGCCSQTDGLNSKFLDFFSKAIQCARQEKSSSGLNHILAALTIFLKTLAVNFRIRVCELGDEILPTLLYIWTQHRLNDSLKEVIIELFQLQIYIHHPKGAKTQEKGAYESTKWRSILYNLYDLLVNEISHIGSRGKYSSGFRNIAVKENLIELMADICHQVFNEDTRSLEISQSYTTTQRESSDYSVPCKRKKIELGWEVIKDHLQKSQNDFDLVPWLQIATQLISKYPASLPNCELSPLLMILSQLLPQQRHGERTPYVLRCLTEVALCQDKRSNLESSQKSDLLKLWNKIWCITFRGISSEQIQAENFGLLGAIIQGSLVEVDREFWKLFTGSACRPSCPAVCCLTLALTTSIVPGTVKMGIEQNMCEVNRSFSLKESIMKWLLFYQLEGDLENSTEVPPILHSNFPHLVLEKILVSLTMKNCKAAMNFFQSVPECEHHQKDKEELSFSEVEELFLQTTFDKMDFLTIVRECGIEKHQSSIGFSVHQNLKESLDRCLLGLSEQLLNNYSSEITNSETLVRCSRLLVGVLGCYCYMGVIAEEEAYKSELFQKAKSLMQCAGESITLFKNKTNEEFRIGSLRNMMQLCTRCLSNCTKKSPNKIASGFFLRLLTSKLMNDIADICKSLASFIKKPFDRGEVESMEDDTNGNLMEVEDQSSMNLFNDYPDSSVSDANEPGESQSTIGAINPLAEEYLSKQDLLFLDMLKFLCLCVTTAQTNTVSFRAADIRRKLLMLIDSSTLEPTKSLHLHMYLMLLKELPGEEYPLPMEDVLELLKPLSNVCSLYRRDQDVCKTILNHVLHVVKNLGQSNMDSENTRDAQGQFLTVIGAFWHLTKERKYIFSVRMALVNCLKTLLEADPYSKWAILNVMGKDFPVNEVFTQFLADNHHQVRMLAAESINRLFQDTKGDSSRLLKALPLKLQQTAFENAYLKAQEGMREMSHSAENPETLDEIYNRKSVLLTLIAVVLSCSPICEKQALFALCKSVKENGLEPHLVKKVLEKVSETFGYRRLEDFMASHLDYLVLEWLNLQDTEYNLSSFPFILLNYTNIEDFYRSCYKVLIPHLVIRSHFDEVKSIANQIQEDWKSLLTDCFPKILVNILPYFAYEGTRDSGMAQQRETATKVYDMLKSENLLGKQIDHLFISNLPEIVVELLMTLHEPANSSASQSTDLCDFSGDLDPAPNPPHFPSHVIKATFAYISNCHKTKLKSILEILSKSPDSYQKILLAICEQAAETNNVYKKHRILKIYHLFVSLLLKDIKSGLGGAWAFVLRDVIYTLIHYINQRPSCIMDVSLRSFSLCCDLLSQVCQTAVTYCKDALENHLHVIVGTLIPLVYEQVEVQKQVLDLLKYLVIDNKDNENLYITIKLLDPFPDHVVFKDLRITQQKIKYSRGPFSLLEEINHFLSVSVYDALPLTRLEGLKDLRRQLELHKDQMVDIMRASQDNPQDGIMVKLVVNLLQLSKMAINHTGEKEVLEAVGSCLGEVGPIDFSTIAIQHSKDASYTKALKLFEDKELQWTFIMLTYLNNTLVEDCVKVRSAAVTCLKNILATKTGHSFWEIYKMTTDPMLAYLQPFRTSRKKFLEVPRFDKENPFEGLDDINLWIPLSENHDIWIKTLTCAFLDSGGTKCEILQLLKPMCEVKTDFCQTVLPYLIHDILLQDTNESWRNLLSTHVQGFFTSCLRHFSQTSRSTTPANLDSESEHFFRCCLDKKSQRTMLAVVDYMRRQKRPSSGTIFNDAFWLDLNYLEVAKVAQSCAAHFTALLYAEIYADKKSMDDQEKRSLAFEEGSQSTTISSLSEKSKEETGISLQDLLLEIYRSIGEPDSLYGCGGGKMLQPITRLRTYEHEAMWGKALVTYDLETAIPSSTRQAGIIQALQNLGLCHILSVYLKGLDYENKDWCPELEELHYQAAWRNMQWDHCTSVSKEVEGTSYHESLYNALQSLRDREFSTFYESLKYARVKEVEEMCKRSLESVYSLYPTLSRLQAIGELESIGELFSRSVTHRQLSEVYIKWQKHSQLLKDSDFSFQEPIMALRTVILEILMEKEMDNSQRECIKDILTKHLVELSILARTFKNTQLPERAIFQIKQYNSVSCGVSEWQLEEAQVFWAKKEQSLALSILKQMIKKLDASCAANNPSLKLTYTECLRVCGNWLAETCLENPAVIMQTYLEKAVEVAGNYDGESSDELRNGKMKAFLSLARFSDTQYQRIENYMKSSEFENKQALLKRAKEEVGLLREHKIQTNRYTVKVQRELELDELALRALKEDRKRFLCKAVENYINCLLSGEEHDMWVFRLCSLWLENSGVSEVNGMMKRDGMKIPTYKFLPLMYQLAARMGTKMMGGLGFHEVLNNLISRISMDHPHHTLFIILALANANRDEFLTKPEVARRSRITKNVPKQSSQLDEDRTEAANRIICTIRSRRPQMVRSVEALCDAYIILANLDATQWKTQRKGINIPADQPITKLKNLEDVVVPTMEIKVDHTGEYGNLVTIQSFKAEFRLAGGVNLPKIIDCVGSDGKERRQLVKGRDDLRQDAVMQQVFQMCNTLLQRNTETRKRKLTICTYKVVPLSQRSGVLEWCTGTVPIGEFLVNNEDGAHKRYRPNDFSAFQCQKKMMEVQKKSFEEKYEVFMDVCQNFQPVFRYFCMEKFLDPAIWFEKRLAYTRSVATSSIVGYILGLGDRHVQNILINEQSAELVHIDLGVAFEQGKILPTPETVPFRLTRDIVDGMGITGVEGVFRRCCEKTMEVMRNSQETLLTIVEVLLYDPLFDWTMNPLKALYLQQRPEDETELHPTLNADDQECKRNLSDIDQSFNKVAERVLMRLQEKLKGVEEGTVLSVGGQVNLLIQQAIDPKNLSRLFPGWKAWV

ATR = biological target: T2, ATR (Homo sapiens, UniProt Q13535); assay: In vitro kinase assay, ATR with GST-peptide / GST-fusion substrates; conditions: for Relative Phosphorylation (%) ATR: GST-peptide substrate, relative to the p53ser15 site; for phosphorylation by ATR in vitro (in words): larger GST-fusion fragments or full-length proteins as substrates
T2 construct: made in house; host or cells: 293T cells, transient transfection with pBJF-FRPwt, anti-FLAG M2 immunoprecipitate
Protocol: as §1, §2
Transfection and Kinase Activity Assays. 293T cells were transiently transfected with 10 μg of either pcDNA-FLAG-ATMwt, pcDNA-FLAG-ATMkd, pBJF-FRPwt or pBJF-FRPkd (Cliby et al., EMBO J., 17:159, 1998) using calcium phosphate and harvested two days later. Cells were lysed through sonication in TGN buffer [50 mM Tris (pH 7.5), 50 mM glycerophosphate, 150 mM NaCl, 10% glycerol, 1% Tween 20, 1 mM NaF, 1 mM NaVO4, 1 mM PMSF, […] Pepstatin A, 5 μg/ml leupeptin, 10 μg/ml Aprotinin and 1 mM DTT] as described (Brunn et al., Science, 277:99-101,1997). After centrifugation at 13,000 ×g, 2 mg of extract were incubated with mouse IgG and protein A/G sepharose beads (Calbiochem). FLAG-tagged proteins were then immunoprecipitated with anti-FLAG M2 monoclonal antibody (Eastman Kodak Company) and protein A/G sepharose beads. Immunoprecipitates were washed twice with TGN buffer, once with 100 mM Tris (pH 7.5) plus 0.5 M LiCl, and twice with kinase buffer [10 mM Hepes (pH 7.5), 50 mM glycerophosphate, 50 mM NaCl, 10 mM MgCl2, 10 mM MnCl2, 5 μM ATP, and 1 mM DTT]. Kinase reactions were initiated by resuspending washed beads in 30 μl of kinase buffer containing 10 μCi [γ-^32P]ATP and 1 μg GSTp531-101 and incubated for 30 minutes at 30° C. Proteins were electrophoretically separated by SDS-polyacrylamide gel electrophoresis, transferred to nitrocellulose, and analyzed on a PhosphorImager. FLAG-tagged proteins and GSTp531-101 were subjected to immunoblotting with either anti-FLAG M2 antibody or monoclonal antibodies directed towards the NH2-terminus of p53 (Ab-2 and Ab-6, Calbiochem) as described (Siliciano et al., Genes Dev., 11:3471, 1997).
Phosphorylation of Ser^15 of p53 by ATM and ATR/FRP1 in vitro. […] Proteins from each reaction were separated by SDS polyacrylamide gel electrophoresis (7% gel), transferred to nitrocellulose, and analyzed either on a PhosphorImager or by immunoblotting. Amounts of FLAG-tagged ATM or ATR in each kinase reaction were measured by immunoblotting with anti-FLAG M2 (top panel) and amount of [γ^32P]phosphate incorporated into ATM or ATR during the reaction (lower panel). […] An upper immunoreactive band represents phosphorylated GSTp53 fusion protein. The same exposures were used for ATM, ATR/FRP1 and corresponding substrate proteins.
as §3
In vitro kinase assays and immunoprecipitation. […] Cleared supernatants were immunoprecipitated with anti-Flag M2 antibody and protein A/G agarose, the beads were washed with TGN buffer followed by TGN buffer plus 0.5 M LiCl, and two washes with kinase buffer [20 mM HEPES (pH 7.5), 50 mM NaCl, 10 mM MgCl2, 1 mM dithiothreitol (DTT) and 10 mM MnCl2]. […] ATP and […] of GST-fusion substrate (GST-p53:1-101), in varying concentration of Mn^2+. […]

[1] = GST-conjugated 14 amino acid peptides

- Relative Phosphorylation (%) DNA-PK (DNA-PK): 44%
- Relative Phosphorylation (%) ATM (ATM kinase): 6%
- Relative Phosphorylation (%) ATR (ATR): 22%
Molecule: β3A Adaptin: GST-peptide ELKPVLSQG (SEQ ID NO:43), S1092 (not fully specified (N-terminus); also: GST fusion; listed as Homo sapiens)

- Relative Phosphorylation (%) DNA-PK (DNA-PK): <1%
- phosphorylation of GST-peptide substrate by ATM (in words) (ATM kinase; [1]): not by ATM
- Relative Phosphorylation (%) ATM (ATM kinase): <1%
- phosphorylation of GST-peptide substrate by ATR (in words) (ATR; [1]): phosphorylated by ATR
- Relative Phosphorylation (%) ATR (ATR): 132%
Molecule: BRCA2: GST-peptide KVSPYLSQFQQDKQ (SEQ ID NO:29), S2156 (also: GST fusion)

- Relative Phosphorylation (%) DNA-PK (DNA-PK): <1%
- Relative Phosphorylation (%) ATM (ATM kinase): <1%
- Relative Phosphorylation (%) ATR (ATR): 8%
Molecule: RPA34kD (SQ3): GST-peptide TGNVEISQVTIVGI (SEQ ID NO:42), S72 (not fully specified (N-terminus); also: GST fusion; listed as Homo sapiens)

- Relative Phosphorylation (%) DNA-PK (DNA-PK): 10%
- Relative Phosphorylation (%) ATM (ATM kinase): 20%
- Relative Phosphorylation (%) ATR (ATR): 48%
Molecule: MRE11 (SQ1): GST-peptide QQLFYISQPGSSVV (SEQ ID NO:11), S264 (also: GST fusion)

- Relative Phosphorylation (%) DNA-PK (DNA-PK): 2%
- Relative Phosphorylation (%) ATM (ATM kinase): 11%
- Relative Phosphorylation (%) ATR (ATR): 30%
Molecule: p120E4F: GST-peptide APEPPVSQELPCSR (SEQ ID NO:31), S355 (not fully specified (N-terminus); also: GST fusion; listed as Homo sapiens)

- Relative Phosphorylation (%) DNA-PK (DNA-PK): 5%
- Relative Phosphorylation (%) ATM (ATM kinase): 10%
- Relative Phosphorylation (%) ATR (ATR): 33%
Molecule: WRN (SQ2): GST-peptide TIGMHLSQAVKAGC (SEQ ID NO:20), S1292 (not fully specified (N-terminus); also: GST fusion; listed as Homo sapiens)

- Relative Phosphorylation (%) DNA-PK (DNA-PK): 5%
- Relative Phosphorylation (%) ATM (ATM kinase): 9%
- Relative Phosphorylation (%) ATR (ATR): 20%
Molecule: CUT1: GST-peptide GASPVLSQGVDPRS (SEQ ID NO:36), S1615 (also: GST fusion)

- Relative Phosphorylation (%) DNA-PK (DNA-PK): 97%
- Relative Phosphorylation (%) ATM (ATM kinase): 81%
- Relative Phosphorylation (%) ATR (ATR): 733%
Molecule: RAD17 (SQ1): GST-peptide TWSLPLSQDSASEL (SEQ ID NO:18), S646 (not fully specified (N-terminus); also: GST fusion)

- Relative Phosphorylation (%) DNA-PK (DNA-PK): 14%
- Relative Phosphorylation (%) ATM (ATM kinase): 25%
- Relative Phosphorylation (%) ATR (ATR): 49%
Molecule: WRN (SQ1): GST-peptide EKAYSSSQPVISAQ (SEQ ID NO:21), S1141 (not fully specified (N-terminus); also: GST fusion; listed as Homo sapiens)

- Relative Phosphorylation (%) DNA-PK (DNA-PK): 45%
- Relative Phosphorylation (%) ATM (ATM kinase): 19%
- Relative Phosphorylation (%) ATR (ATR): 31%
Molecule: p95: GST-peptide TPGPSLSQGVSVDE (SEQ ID NO:10), S343 (not fully specified (N-terminus); also: GST fusion; listed as Homo sapiens)

- phosphorylation by ATM in vitro (in words) (ATM kinase): phosphorylated
- ATR/FRP-1 activity towards substrate, less than ATM (ATR; identical experimental conditions): at least 20 fold
Molecule: wt p53: recombinant glutathione S-transferase-conjugated p53 protein containing the first 101 amino acids of p53

- Relative Phosphorylation (%) DNA-PK (DNA-PK): 36%
- Relative Phosphorylation (%) ATM (ATM kinase): 42%
- Relative Phosphorylation (%) ATR (ATR): 35%
Molecule: BRCA1 (SQ2): GST-peptide DCSGLSSQSDILTT (SEQ ID NO:33), S1387 (also: GST fusion)

- phosphorylation by ATM in vitro (in words) (ATM kinase): not phosphorylated
- phosphorylation by ATR in vitro (in words) (ATR): not phosphorylated
Molecule: full-length WRN protein: purified recombinant full-length WRN protein

- Relative Phosphorylation (%) ATM (ATM kinase): <1%
Molecule: MRE11 (SQ5): GST-peptide SSSKIMSQSQVSKG (SEQ ID NO:15), S648 (also: GST fusion)

- Relative Phosphorylation (%) ATM (ATM kinase): <1%
Molecule: MRE11 (SQ4): GST-peptide SASRGGSQRGRAFK (SEQ ID NO:14), S590 (also: GST fusion)

- phosphorylation by ATM in vitro (in words) (ATM kinase): did not phosphorylate
Molecule: GST: glutathione S-transferase alone, control substrate [reference compound]

- phosphorylation by ATM in vitro (in words) (ATM kinase): excellent in vitro substrate
B1: GST-p95 (327-391): larger GST-p95 protein fragment, p95 amino acids 327-391, containing serine 343 (protein)
chain: GHPSTGLKTTTPGPSLSQGVSVDEKLMPSAPVNTTTYVADTESEQADTWDLSERPKEIKVSKMEQ
modifications: also: GST fusion

- phosphorylation by ATM in vitro (in words) (ATM kinase): not phosphorylated
- phosphorylation by ATR in vitro (in words) (ATR): not phosphorylated
B2: GST-WRN (1099-1198): GST-linked WRN fragment, amino acids 1099-1198 (protein)
chain: STEKKSNLEKLYSYKPCDKISSGSNISKKSIMVQSPEKAYSSSQPVISAQEQETQIVLYGKLVEARQKHANKMDVPPAILATNKILVDMAKMRPTTVENV
modifications: left off: a dimerising Fc or GST

- phosphorylation by ATM in vitro (in words) (ATM kinase): good substrate
- phosphorylation by ATM in vitro (in words) (ATM kinase; listed as full-length 4E-BP 1): can phosphorylate
B3: PhasI/4E-BP1: full-length 4E-BP1 protein, translation regulator in insulin signaling (protein)
chain: SAGSSCSQTPSRAIPTRRVALGDGVQLPPGDYSTTPGGTLFSTTPGGTRIIYDRKFLMECRNSPVAKTPPKDLPTIPGVTSPTSDEPPMQASQSHLHSSPEDKRAGGEESQFEMDI
